Experimental data from the DeepSol protein solubility set.

Experiment: soluble on expression in E. coli; label from the status in PepcDB or PDB records

GIDAAEYVLYGGKGGVGKTTCAAATALASARDDTATLVVSTDPAHSLSDTLDADIPATPTRIREDIPLYAAEIDPEAAVGEGPLGVEEDALGGVGELLGGDGMFGGGAGGAAGAGQAEDPIGGEEGLLGGSMPGADEAAALRLLLDYVDDDRFDRVVIDTAPTGHTLRLLELPETMDSMVGKILQLRERFSGMMDNLTGMFGDDQDVDAEAGIEDLQELSDRIEHLRGILQDPQRTDFRIVMVPEELSVVESERLLAQLGEFNIPVSTVVVNRVMQDPSEVLGEDVDIAGPNHADCEFCARRWQVQQDALARSQDMFRGHDVRRVPLFAEEVRGERLLSVVAACLD
soluble on expression in E. coli: not soluble

MGSDKIHHHHHHLQKYLSILRNSPFFKGLADNEILSILHCVNATTISKKRDSYIFRAGDITEVMGIVVSGCVLIIQEDIWGHRNILSKCHAGDFFGEPYAASQRAVLNISVVADEDCEIILLNVKRLLITCPTACEHHQKLIRNLVSVLANKILILNDKITHVGKRTTRDKLLSYLSAESIRHSSLSFDIPFDRQQLADYLCIDRAAMSTEISKLQKEGFIKTNRNHFELQLSIIKKKNYTI
soluble on expression in E. coli: not soluble

DLYFQGGSGMQCEEKLEVFENGFKDEKFNVEVKFYGNDARKVLLAMIYELYLPEYGREYVYPFECAKEFWNIYLEGEEIQDEEFQLKPIKFTSEQVIKKLQEEIKKIKPPLEIKIEEAKIYKTKEGYLAVGNYFILDPRGRLFIFNKPSIANKILKYIWKW
soluble on expression in E. coli: soluble

MGSDKIHHHHHHQTAEPPKTVRPDQLAFRDLYKELVEINTTLSVGSCTAASEAMGARLKAAGFPEADVRVVVEPKHPREGNLVAVLRGTDATTKPMLLLAHIDVVEAKREDWTRDPFKLVEENGYFYGRGTSDDKAQAAIWVDSLIRLKQAGFKPKRDIKMALTCGEESEGYNGIEDLLKNHRPLVDAEFALNEGASGLLDEQGKAVMLEVQAGEKVYQDFTLTVTNPGGHSSRPVSPNAIYQLSAALDRIGAYQFPPRFNDATRGYFTQMQARVTPEQAAAMKTLVADVNDPAALALITKDRTWNSMLRTTCVATMVSAGHAPNALPQRATANINCRILPGTPIDEVKAKLTELAADPAVAVTLAHSSKPASPPPPLTPAIMAPIQKNAAKLWPGVPILPVMSTGATDAVHTSAAGIPTYGVTGLFHGPEGTGAHGLNERMRVKSLYEGRDFLHGLIQDYAGGK
soluble on expression in E. coli: not soluble

MGSDKIHHHHHHMSGMIGKIQDKKIFSITIIPSSWCNFRCVYCYENDHYKIKNMITTSEMTKRIKLFLENNIKTGFFRKVHIRWYGGEPLLDFKTIIDIMDFTNSIGKTYKTDIIGEIITNGYLLDIVKFKILLEKGVKIFQVTIDGYKDAHDKLRPLLNGKPTFDKIFENLIQTRNVTDNFFMFIRSNVMPDNLDSIKKFLDLASNYFSRDRRYYFTFFPVTRSGGDNDKNLKVIEPKKRMEIIQELYMYATQLGLNIPDKDTLLQIDGVPAMDDLCQALYPFSIIIRNDGKLFKCPLTVMIDDESVGHIEEDGSIVLDESKINRWAKYILSPLSRGCPRLHELGEVVGVEAE
soluble on expression in E. coli: not soluble

MHFVKKVPTTEEEKAAKQKEHTKRSQQFLHVRDKIVAKREKGEYDDEILSLTQAILEKNADIYTFWNIRRTTIELRMEANEKVQQSADAEEEEKTKSSQKIENLLAGELFLSYECIKSNPKSYSAWYQRAWALQRQSAPDFKKELALCEKALQLDCRNFHCWDHRRIVARMAKRSEAEELEFSNKLINDNFSNYSAWHYRSIALKNIHRDEKTGAPKIDDELIASELQKVKNAFFMDAEDQSAWTYTRWLLEVGSGKEFLRPESHTPIELISASFHGNNTTLVFSRAVTIQFLLTFVDTENTTGWRAFSSTSPNPTSSRVWQYLSDTPLRVVTSNPTDLENISWTELNEQPYVNLDRLKTIYDVVEVPQPAYIGELLEDCKQLIELEPKNKWPLYMRTLVLLEYQPIKSYEEIIKNLENLSENLDPKRSELYKSLISRQNLNFSIREQFERILGPDTDWLTCRYSKLTSLEGVEYLAGFVGSADFSGNRLKEIQRIVLPNLKSLTINENPIESLPPSPCLSHLTFFSIAGTQIASVSAVMPFFQTIPSLDRLVFCETPLVEKTEELRAQLPGVRLIPHWL
soluble on expression in E. coli: soluble

MIIREATVQDYEEVARLHTQVHEAHVKERGDIFRSNEPTLNPSFFQAAVQGEKSTVLVFVDEREKIGAYSVIHLVQTPLLPTMQQRKTVYISDLCVDETRRGGGIGRLIFEAIISYGKAHQVDAIELDVYDFNDRAKAFYHSLGMRCQKQTMELPLLEHHHHHH
soluble on expression in E. coli: soluble

SSGSTVDSTTLCLFDVDGTLTAARQKATADMHEFLSKLKQRVKVGVVGGSDLDKIKEQLGDDVIDRVDYVFAENGLVAYRFGKLHSVQNIQAYLGEDILQEFINFCLNYLSKIKLPKKRGTFIEFRNGMLNVSPIGRSCSQQERIEFFELDKKEKIRETFVSVLKEEFAGKGLAFSIGGQISFDVFPEGWDKRYCLGIVEKDSYQHIHFFGDKTMPGGNDYEIFVDPRTIGHEVKSPEDTQRICRELFFS
soluble on expression in E. coli: soluble

MGKRLKSNARKSAVNKLVKKTDNRIKEEQRVIRTPKVDEQELKLVRAPKISSAMFMKYNTQLGPPFHVIVDTNFVNFAVKNRIDMFQGFMDCLFAKTIVYATDCVLAELEKVRRFKIALKVLKDPRVQRLKCEHKGTYADDCLVQRVTQHKCYIVATCDRDLKRRIRKIPGVPIMYIVNHRFSIERMPDAYGAPMN
soluble on expression in E. coli: not soluble

MKAVKATLMYDGLGNIEKNVYIIFDKDIVNITREKPKDVEVVAEGVVTPAFIDAHSHIGMDRYGEPYQESELNEQMDSVLPLADALYSIYMDDKAFKHSIEFGVLYSSILPGSGNIIGGKGVLIRNYGRDIEDAFIKYVGVKAAFGYNPRSTTNWKGLRPSTRMGAIGILFNWLIKTKKTISLLEKGKKDPEEIDPVIEALIPVLKGEMPLRVHAHKEDDIAVLLMIKRKFNLKVTVEHAADVHSKETFEKIKREGVPLVYGPLDAHPYKVELKHEDWKNAKYLLEVKPFFGLMSDHPFSIQANLYLQLRHFIRLGMSKAEAIKLITYNNAKILGIEDKLGSLEKGKWASLVVWNGDPFNLENYPTHVFAEGELIHEANL
soluble on expression in E. coli: soluble

LNAAMNLKREFVHRVQRFVVNPIGRQLPMTMLETIGRKTGQPRRTAVGGRVVDNQFWMVSEHGEHSDYVYNIKANPAVRVRIGGRWRSGTAYLLPDDDPRQRLRGLPRLNSAGVRAMGTDLLTIRVDLD
soluble on expression in E. coli: soluble

MSLTDPNRLTLFYSPQTRATGMRVLLEELGAPYDLHVLNMKAGEQRQPAYLAINPLGKVPAIRRGDALVTEQVAITIYLADLFPGAGLAPSLDDPLRGPYLRWIAYYGSTFEPAVVDRSMQREPGPAEMSPYADYDTMLGALEAQLATGPYLLGDRFTAADVLWGIALNWTLNFGLVPKKDAFVRYAELVTARPAFRRVDLADAEMAAEGHHHHHH
soluble on expression in E. coli: soluble

MAHHHHHHSLTTSHILGFPRVGAKRELKFAQERYWRKELAEQDLLDLAKALREKNWKHQAAANADFVAVGDFTFYDHILDLQVATGAIPARFGFDSQNLTLDQYFQLARGNKDQFAIEMTKWFDTNYHYLVPEFQKSTAFKANPAHYVNQIREAKALGLNFKPVIVGPLTFLWLGKEKGEAFNRFDLLNQLVPVYVEILNALVAEGAEWIQIDEPALALDLPAEWVEAYKSVYTELSKVNAKLLLATYFGSVAEHAELLKALPVAGLHLDLVRAPEQLAAFEDYSKVLSAGVIEGRNIWRANLNKVLDVLEPLKAKLGERLWIAPSCSLLHTPFDLEVEVQLKEKNTALYSWLSFTLQKVEELNVLKQALNNGRASVQAALDASQVAADARATSKEIHRPEVAERLANLPKGADQRKSPFAERIVKQNAWLNLPLLPTTNIGSFPQTTEIRHARASFKKGELSLADYEAAMKKEIEYVVRRQEELDLDVLVHGEAERNDMVEYFGELLDGFAFTKFGWVQSYGSRCVKPPVIYGDVTRPEPMTVRWSQYAQSLTNRVMKGMLTGPVTILQWSFVRNDIPRSTVCKQIGVALSDEVLDLEAAGIKVIQIDEPAIREGLPLKRADWDAYLQWAGEAFRLSSMGVQDDTQIHTHMCYSEFNDILPAIAALDADVITIETSRSDMELLTAFADFKYPNDIGPGVYDIHSPRVPTATEVEHLLRKALNVIPKERLWVNPDCGLKTRGWTETIDQLKVMVDVTKKLRAELAEG
soluble on expression in E. coli: soluble

MSGVLNTVDQRTNLVGENRLELLLFTLNSRQLFAINVFKVKEVIKLPPLTKLPGSHYNIRGVASLRGEAVPVIDLRCSIGFPPLRGEAEEENLIVTEYNRSVQGFLVGPVRNIINTAWTEIQPPPSTSGRSNYLTAITQVKDGDTSQIVEIIDVEKVLAEIVHYDVTISEDILDHDLSQSMVGRN
soluble on expression in E. coli: not soluble

MTNMRQVLKTDRLVLEPQSMARFDQWFAMERQRDEAGHRDLTEDQAWLRLCARQGMWDAYACGFYYLLDPVSGEMRGEAGFQFRRRGFGPGFDNHPEAAWAVASAHQGRGLAAEAMQALLAHHDRSSGRQRVVALIARSNLPSLRLAERLGFRGYSDVAFDGAAHLLLERAG
soluble on expression in E. coli: soluble

TNGFLKILGLGSGHDDKDKLSSEELRTVVHEAGGLIPRRHQDMLISILDLEHVTVNDIMVPRSEITGIDINDDWKSISRQLTHSPHGRIVLYRDQIDEVVGMLRLRESYRLMLEKNEFTKETLLRAADEIYFIPEATPLNSQLLKFQRNKERIGLVVDEYGDIQGLITLEDILEEIVGEFT
soluble on expression in E. coli: not soluble

MGSDKIHHHHHHMSIAIIIATHGVAAEQLLKTTEMLIGEQENVATIDFVSGENAETIMTKYQEKLSTTLAHCDEVLFLVDTWGGSPFNAANRVIGDNTNMDIVTGVNVPMLVETFMARDDNPSLQELVSIALETGRAGVRALKYEEKSAETTALSQPVPEQPQIAVKQQEGNLIVGLARIDDRLIHGQVATRWTKESRVTRIVVVNDDVAKDQVRSTMLKSVAPPGVTAHVVNIEKMIRVYNNPEYANERMMLLFTNPTDVLRLLEAGVDMKSINVGGMAYKDGKKMITSAVAVDDKDIAAFKAIDAMGIELDVRKVSNDSRQYMMDLLKKNNLI
soluble on expression in E. coli: not soluble

MISILHVAARVLELRPSCDKMKLYKLCYFSQGWHLAWTGRPLFNEELQAWKYGAVSPTLRQASGLRADDDRLVTQIWSGDSSQLIDYERSVVDTVVSFYGDLESFHLSDLSHGFAWSTVRGNLPPDASCSDVIPHSLIRREFVENAWGEAPTPNAPERLPSMALDALEQAADDVAAENAETLRLLAFI
soluble on expression in E. coli: not soluble

GMNRLRTSFQQTTGQISGHGKRNVGVLKTAFAAVADEMASDQYGTGAIIEPFEQKFADVLGMDDAVFFPSGTMAQQVALRIWSDETDNRTVAYHPLCHLEIHEQDGLKELHPIETILVGAADRLMTLDEIKALPDIACLLLELPQREIGGVAPAFSELETISRYCRERGIRLHLDGARLFEMLPYYEKTAAEIAGLFDSIYISFYKGLGGIAGAILAGPAAFCQTARIWKRRYGGDLISLYPYIVSADYYYELRKDRMGQYYEQAKQLAEQFNALPGVHTTPEVPVSNMFHLHFDGQAADISPKLEQVQEETGLGFVGYLVDKDGYCSTEISVGDAYGELDQQTRDAGFARLRQAFS
soluble on expression in E. coli: soluble

MKKARRRIDVDELFEGVRRGDRTLISRAITLLESTAPAHRVLAQELLVKLLPFSGKALRVGITGVPGVGKSTFIEALGMKLIGDGHKLAVLAIDPSSTKTRGSILGDKTRMAKLAREDNAFIRPSPSAGTLGGVAKATRESMVVFEAAGYDVILVETVGVGQSEVAVSQMVDCFTFLALAGAGDQLQGIKKGILEMADLVAINKADGPNLKNAKRAARELAAAMRMVRQENDLWHPPTITMSAVEHEGVDEFWEHVQNHNKAMLESGVFEHNRREQQVQWMWSMVHETLLQRLNTDPNVVEVKKLVEDQLRHAHITPTLAAERILKAFDHVTAD
soluble on expression in E. coli: not soluble
